Reference: paper PMC4551934, “RNA aptamer inhibitors of a restriction endonuclease”
Residue numbers refer to the chain shown, from its start.

T1: BamHI(E111A) restriction endonuclease (UniProt P23940 1-213, E111A)
T1 sequence: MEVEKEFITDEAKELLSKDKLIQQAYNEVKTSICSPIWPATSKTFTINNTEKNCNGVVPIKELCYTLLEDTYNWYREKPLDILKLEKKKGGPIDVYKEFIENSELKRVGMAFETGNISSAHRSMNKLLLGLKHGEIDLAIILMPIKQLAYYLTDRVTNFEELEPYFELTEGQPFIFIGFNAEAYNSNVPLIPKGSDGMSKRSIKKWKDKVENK

B1: anti-KpnI aptamer 20 (structured_RNA)
RNA: GGGAUAUCCUUCAUGAUUCGGAAAAGCGUAACCGCGGCCAAUCAUGCAUGAAGCGUUCCAUAUUUUU
B2: anti-KpnI aptamer 30 (structured_RNA)
RNA: B1 RNA with A40G
B3: anti-KpnI aptamer 24 (structured_RNA)
RNA: GGGAUAUCCUUCAUGGUGUGAUUAAACGUAAUCUCAAUCGAUCAUGCAUGAAGCGUUCCAUAUUUUU
B4: anti-KpnI aptamer 29 (16/23/29) (structured_RNA)
RNA: GGGAUAUCCCUACAUGAUAAUCGGGUGAGUAAGGCCUAAACAUCAUGCAUGAAGCGUUCCAUAUUUUU

Assays:
[1] = biological target: KpnI restriction endonuclease (UniProt P25237 1-218); assay: cleavage inhibition; 20 nM DNA probe N10; Kd EMSA: 10 mM Bis-Tris-Propane-HCl pH 7, 10 mM MgCl2, 100 ug/ml BSA, 37 C, 30 min; screen EMSA in selection buffers, 37 C: 10 mM HEPES pH 7.5 with 400 mM NaCl/; conditions: protein: commercial, chain copies: 2
Sequence of KpnI restriction endonuclease (P25237 whole entry): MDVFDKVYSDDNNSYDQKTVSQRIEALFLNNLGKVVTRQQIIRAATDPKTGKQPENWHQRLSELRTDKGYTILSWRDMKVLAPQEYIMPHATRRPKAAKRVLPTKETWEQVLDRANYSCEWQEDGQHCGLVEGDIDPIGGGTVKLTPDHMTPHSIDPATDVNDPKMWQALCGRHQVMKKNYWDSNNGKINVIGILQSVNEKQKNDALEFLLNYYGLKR

[2] = biological target: T1, BamHI(E111A) restriction endonuclease; assay: EMSA; 20 nM protein; Kd EMSA: 10 mM Bis-Tris-Propane-HCl pH 7, 10 mM MgCl2, 100 ug/ml BSA, 37 C, 30 min; screen EMSA in selection buffers, 37 C: 10 mM HEPES pH 7.5 with 400 mM NaCl/; conditions: protein: commercial; chain copies: 2; label: 32P; hairpin

Binder | IC50 ([1]; hairpin) | IC50 [1] | IC50 ([1]; label: 32P, hairpin) | binding result [2]
GGGCAUGAUUCGGAAAAGCGUAACCGCGGCCAAUCAUG (structured_RNA) [aptamer 20s (38 nt)] | 13 ± 1.5 nM | – | – | –
GGGCAUGAUUCGGAUAUGCGUAACCGCGGCCAAUCAUG (structured_RNA) [20_AAA] | – | 104000 nM | – | –
B1 | – | – | 36.1 ± 3.9 nM | no binding
B2 | – | – | 23.1 ± 0.8 nM | no binding
B3 | – | – | – | no binding
B4 | – | – | 153 ± 11 nM | no binding
GGGUCGGAAAAGCGUAACCGCGGCCA (structured_RNA) [20_26 nt] | – | 77000 nM | – | –
